# Laboratory results from paper PMC6839005.
# Tests used:
# Assay in all cases: SPR
# [1] = molecular target: Human IgG1κ isotype control (human)
# [2] = molecular target: Recombinant HIV-1 gp120 ZM53M.PB12 (HIV-1 ZM53M.PB12 (Clade C))
# [3] = molecular target: Recombinant HIV-1 gp120 SF162 (Clade B) (HIV-1 SF162 (Clade B))
Substance,Kd [1],fold increase in affinity compared to AH [2],fold increase in affinity compared to AH [3]
"Recombinant human Fc gamma receptor IA (FcγRI, CD64) (from UniProt P12314 16-374)",0.00011 µM,,
"Recombinant human Fc gamma receptor IIIA (FcγRIIIa, CD16) (from UniProt P08637 17-254)",0.68 µM,,
AvFc (lectibody: Avaren fused to the Fc region of human IgG1) (from UniProt Q9KWN0 47-160) (Fc fusion),,10 fold,10 fold
Neonatal Fc receptor (FcRn) (from UniProt P55899 24-365),0.018 µM,,
